Measured values taken from the supplement of paper PMC10567573.

B1: SEC22B (parent)
chain: FPKKLAFAYLEDLHSEFDEQHGKK

Variants of: B1
Experiment: protein stability index of a GFP-peptide fusion (GPS, HEK-293T) (PSI 1-6); higher = more stable
Conditions: c terminus: a fixed tail appended
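Note: lentivirally expressed fusions sorted by FACS into six bins by GFP to DsRed ratio, PSI derived from sequencing read proportions per bin multiplied by bin number.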

In order of falling protein stability index:
1. FPKKLAFAYLEDGHSEFDEQHGKK [L13G]  3.51
2. FPKKLAFAYLEDEHSEFDEQHGKK [L13E]  3.23
3. FPKKLAFAYLEDQHSEFDEQHGKK [L13Q]  3.21
4. FPKKLAFAYLEDKHSEFDEQHGKK [L13K]  3.2
5. FPKKLAFAYLEDAHSEFDEQHGKK [L13A]  3.2
6. FPKKLAFAYLEDNHSEFDEQHGKK [L13N]  3.13
7. FPKKLAFAYLEDWHSEFDEQHGKK [L13W]  2.99
8. FPKKLAFAYLEDLHSEFDEDHGKK [Q20D]  2.93
9. FPKKLAFAYLEDHHSEFDEQHGKK [L13H]  2.93
10. FPKKLAFAYLEDLHSEFDDQHGKK [E19D]  2.92
11. FPKKLAFAYLEDLHSEFSEQHGKK [D18S]  2.92
12. FPKKLAFAYLEDLHSKFDEQHGKK [E16K]  2.87
13. FPKKLAFAYLEDLHSEFDNQHGKK [E19N]  2.86
14. FPKKLAFAYLEDLHSEFDEVHGKK [Q20V]  2.84
15. FPKKLAFAYLEDCHSEFDEQHGKK [L13C]  2.83
16. FPKKLAFAYLEDLHSSFDEQHGKK [E16S]  2.8
17. FPKKLAFAYLEDTHSEFDEQHGKK [L13T]  2.79
18. FPKKLAFAYLEDRHSEFDEQHGKK [L13R]  2.79
19. FPKKLAFAYLEDLHSEFDPQHGKK [E19P]  2.79
20. FPKKLAFAYLEDLHSEFDERHGKK [Q20R]  2.67
21. FPKKLAFAYLEDLHSEFEEQHGKK [D18E]  2.65
22. FPKKLAFAYLEDLHSEFDEKHGKK [Q20K]  2.64
23. FPKKLAFAYLEDIHSEFDEQHGKK [L13I]  2.62
24. FPKKLAFAYLEDPHSEFDEQHGKK [L13P]  2.61
25. FPKKLAFAYLEDLHSEFDLQHGKK [E19L]  2.6
26. FPKKLAFAYLEDLHSEFDESHGKK [Q20S]  2.58
27. FPKKLAFAYLEDSHSEFDEQHGKK [L13S]  2.56
28. FPKKLAFAYLEDLHSEFTEQHGKK [D18T]  2.56
29. FPKKLAFAYLEDLHSEFDENHGKK [Q20N]  2.55
30. FPKKLAFAYLEDVHSEFDEQHGKK [L13V]  2.55
31. FPKKLAFAYLEDLHSQFDEQHGKK [E16Q]  2.55
32. FPKKLAFAYLEDLHSEFDELHGKK [Q20L]  2.54
33. FPKKLAFAYLEDDHSEFDEQHGKK [L13D]  2.54
34. FPKKLAFAYLEDLHSEFDEQHAKK [G22A]  2.54
35. FPKKLAFAYLEDLHSEFDMQHGKK [E19M]  2.53
36. FPKKLAFAYLEDLHSEFDEEHGKK [Q20E]  2.52
37. FPKKLAFAYLEDLHSEFDFQHGKK [E19F]  2.51
38. FPKKLAFAYLEDFHSEFDEQHGKK [L13F]  2.5
39. FPKKLAFAYLEDLHSGFDEQHGKK [E16G]  2.5
40. FPKKLAFAYLEDLHSEFDEFHGKK [Q20F]  2.49
41. FPKKLAFAYLEDLHSEFDEYHGKK [Q20Y]  2.47
42. FPKKLAFAYLEDYHSEFDEQHGKK [L13Y]  2.47
43. FPKKLAFAYLEDLHSEFDAQHGKK [E19A]  2.47
44. FPKKLAFAYLEDLHSEFPEQHGKK [D18P]  2.47
45. FPKKLAFAYLEDLHSEFDEWHGKK [Q20W]  2.46
46. FPKKLAFAYLEDLHSEFVEQHGKK [D18V]  2.45
47. FPKKLAFAYLEDLHSEFDETHGKK [Q20T]  2.44
48. FPKKLAFAYLEDLHSEFDTQHGKK [E19T]  2.42
49. FPKKLAFAYLEDLHSEFDEPHGKK [Q20P]  2.4
50. FPKKLAFAYLEDLHSAFDEQHGKK [E16A]  2.4
51. FPKKLAFAYLEDLHSEFDYQHGKK [E19Y]  2.39
52. FPKKLAFAYLEDLHSRFDEQHGKK [E16R]  2.39
53. FPKKLAFAYLEDLHSEFAEQHGKK [D18A]  2.38
54. FPKKLAFAYLEDLHSEFGEQHGKK [D18G]  2.38
55. FPKKLAFAYLEDLHSEFHEQHGKK [D18H]  2.38
56. FPKKLAFAYLEDLHSEFDKQHGKK [E19K]  2.37
57. FPKKLAFAYLEDLHSEFDIQHGKK [E19I]  2.37
58. FPKKLAFAYLEDLHSEFDGQHGKK [E19G]  2.36
59. FPKKLAFAYLEDLHSTFDEQHGKK [E16T]  2.36
60. FPKKLAFAYLEDLHSEFDEQHCKK [G22C]  2.35
61. FPKKLAFAYLEDLHSDFDEQHGKK [E16D]  2.34
62. FPKKLAFAYLEDLHSEFDQQHGKK [E19Q]  2.33
63. FPKKLAFAYLEDLHSEFDSQHGKK [E19S]  2.33
64. FPKKLAFAYLEDLHSEFDEGHGKK [Q20G]  2.32
65. FPKKLAFAYLEDLHSEFDVQHGKK [E19V]  2.32
66. FPKKLAFAYLEDMHSEFDEQHGKK [L13M]  2.3
67. FPKKLAFAYLEDLHSEFNEQHGKK [D18N]  2.3
68. FPKKLAFAYLEDLHSLFDEQHGKK [E16L]  2.29
69. FPKKLAFAYLEDLHSPFDEQHGKK [E16P]  2.25
70. FPKKLAFAYLEDLHSEFQEQHGKK [D18Q]  2.25
71. FPKKLAFAYLEDLHSEFDEAHGKK [Q20A]  2.23
72. FPKKLAFAYLEDLHSEFLEQHGKK [D18L]  2.22
73. FPKKLAFAYLEDLHSEFMEQHGKK [D18M]  2.22
74. FPKKLAFAYLEDLHSEFWEQHGKK [D18W]  2.17
75. FPKKLAFAYLEDLHSEFDCQHGKK [E19C]  2.15
76. FPKKLAFAYLEDLHSNFDEQHGKK [E16N]  2.15
77. FPKKLAFAYLEDLHSEFDWQHGKK [E19W]  2.12
78. FPKKLAFAYLEDLHSHFDEQHGKK [E16H]  2.08
79. FPKKLAFAYLEDLHSIFDEQHGKK [E16I]  2.07
80. FPKKLAFAYLEDLHSEFDHQHGKK [E19H]  2.05
81. FPKKLAFAYLEDLHSEFFEQHGKK [D18F]  2.04
82. FPKKLAFAYLEDLHSEFDEIHGKK [Q20I]  2.03
83. FPKKLAFAYLEDLHSEFREQHGKK [D18R]  2.03
84. FPKKLAFAYLEDLHSCFDEQHGKK [E16C]  2
85. FPKKLAFAYLEDLHSWFDEQHGKK [E16W]  1.94
86. FPKKLAFAYLEDLHSMFDEQHGKK [E16M]  1.93
87. FPKKLAFAYLEDLHSEFIEQHGKK [D18I]  1.92
88. FPKKLAFAYLEDLHSEFCEQHGKK [D18C]  1.9
89. FPKKLAFAYLEDLHSVFDEQHGKK [E16V]  1.87
90. FPKKLAFAYLEDLHSEFKEQHGKK [D18K]  1.76
91. FPKKLAFAYLEDLHSEFDRQHGKK [E19R]  1.63
92. FPKKLAFAYLEDLHSYFDEQHGKK [E16Y]  1.56
93. FPKKLAFAYLEDLHSFFDEQHGKK [E16F]  1.53
94. FPKKLAFAYLEDLHSEFYEQHGKK [D18Y]  1.5
